These results are taken from patent publication US20040209326A1.

For assay [1], the target named is fibrinogen binding protein encoded from pSE100 (581 aa part of protein FIG of Staphylococcus epidermidis strain HB) (Staphylococcus epidermidis strain HB) (UniProt O70022). The experiment in a line: inhibition of pSE100 phage panning on fibrinogen-coated wells by the soluble ligand; phage eluted at pH 1.8.
Assay [2] addresses Transferrin. The assay is described as follows: phage panning on coated protein in microtiter wells; last wash.
The target in assay [3] is Pepsin. The description is as above.
The target of assay [4] is Human fibrinogen (human) (UniProt P02671). The description is as above.
Assay [5] deals with Fibronectin. The assay is described as above.
Assay [6] has as its target Vitronectin. Described as above.
Assay [7] has as its target Collagen type I. Described as above.
Assay [8] deals with human IgG. The description is as above.
Assay [9] has as its target α2macroglobulin. Described as above.
In assay [10] the target is Elastin. Described as above.
Assay [11] concerns the target IgA. Described as above.
The target in assay [12] is Lactoferrin. The description is as above.
Assay [13] deals with Bovine serum albumin (fraction V, ria grade) (bovine) (UniProt P02769). The assay is described as above.
Assay [14] deals with Human serum albumin (human) (UniProt P02768). The assay is described as above.
The target of assay [15] is Transferrin. The assay is described as follows: phage panning on coated protein in microtiter wells; bound phage eluted at pH 1.8.
Assay [16] concerns the target Pepsin. Described as above.
Assay [17] addresses Human fibrinogen (human) (UniProt P02671). The description is as above.
Assay [18] has as its target Fibronectin. Described as above.
Assay [19] deals with Vitronectin. Described as above.
The target in assay [20] is Collagen type I. Described as above.
In assay [21] the target is human IgG. The description is as above.
For assay [22], the target named is α2macroglobulin. The assay is described as above.
The target of assay [23] is Elastin. The assay is described as above.
For assay [24], the target named is IgA. Described as above.
The target of assay [25] is Lactoferrin. Described as above.
In assay [26] the target is Bovine serum albumin (fraction V, ria grade) (bovine) (UniProt P02769). Described as above.
Assay [27] concerns the target Human serum albumin (human) (UniProt P02768). The description is as above.

Sequence of UniProt O70022 (O70022 75-656): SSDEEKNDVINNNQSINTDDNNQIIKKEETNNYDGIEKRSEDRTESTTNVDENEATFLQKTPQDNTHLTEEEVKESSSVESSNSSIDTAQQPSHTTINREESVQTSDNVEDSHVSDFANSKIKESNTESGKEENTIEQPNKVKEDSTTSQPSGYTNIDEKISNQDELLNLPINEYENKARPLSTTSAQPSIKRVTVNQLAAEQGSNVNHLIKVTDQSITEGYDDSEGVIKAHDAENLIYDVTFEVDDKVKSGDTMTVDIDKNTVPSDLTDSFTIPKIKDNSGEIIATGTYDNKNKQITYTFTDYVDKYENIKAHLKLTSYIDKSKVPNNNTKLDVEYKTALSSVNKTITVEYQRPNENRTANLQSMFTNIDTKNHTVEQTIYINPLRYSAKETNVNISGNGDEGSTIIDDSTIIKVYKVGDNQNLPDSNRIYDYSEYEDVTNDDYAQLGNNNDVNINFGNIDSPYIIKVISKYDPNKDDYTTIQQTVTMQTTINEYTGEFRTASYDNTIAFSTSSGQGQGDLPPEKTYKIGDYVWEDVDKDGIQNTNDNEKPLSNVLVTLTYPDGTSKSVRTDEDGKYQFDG
Sequence of UniProt P02671 (P02671 other isoform, or with tags, fused parts or gaps limits assumed, chain 1 of 3): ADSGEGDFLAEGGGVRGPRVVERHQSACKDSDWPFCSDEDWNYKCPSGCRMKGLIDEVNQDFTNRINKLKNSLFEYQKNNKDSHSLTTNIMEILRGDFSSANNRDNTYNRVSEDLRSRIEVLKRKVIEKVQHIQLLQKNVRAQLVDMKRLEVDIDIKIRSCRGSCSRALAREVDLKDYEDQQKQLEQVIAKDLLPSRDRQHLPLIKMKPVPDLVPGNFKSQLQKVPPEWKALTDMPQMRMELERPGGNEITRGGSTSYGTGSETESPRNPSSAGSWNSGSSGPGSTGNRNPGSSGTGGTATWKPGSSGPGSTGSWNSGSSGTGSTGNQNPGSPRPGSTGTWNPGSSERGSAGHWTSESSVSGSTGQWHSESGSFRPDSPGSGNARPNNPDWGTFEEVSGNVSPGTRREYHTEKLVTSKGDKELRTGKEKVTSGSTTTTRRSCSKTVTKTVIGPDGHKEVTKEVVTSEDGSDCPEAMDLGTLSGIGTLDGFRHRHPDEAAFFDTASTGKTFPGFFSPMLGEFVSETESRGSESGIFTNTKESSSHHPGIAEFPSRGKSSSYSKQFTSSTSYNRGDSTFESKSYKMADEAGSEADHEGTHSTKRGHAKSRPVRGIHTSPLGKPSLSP
Sequence of UniProt P02671 (P02675 31-491 limits assumed, chain 2 of 3, further chain): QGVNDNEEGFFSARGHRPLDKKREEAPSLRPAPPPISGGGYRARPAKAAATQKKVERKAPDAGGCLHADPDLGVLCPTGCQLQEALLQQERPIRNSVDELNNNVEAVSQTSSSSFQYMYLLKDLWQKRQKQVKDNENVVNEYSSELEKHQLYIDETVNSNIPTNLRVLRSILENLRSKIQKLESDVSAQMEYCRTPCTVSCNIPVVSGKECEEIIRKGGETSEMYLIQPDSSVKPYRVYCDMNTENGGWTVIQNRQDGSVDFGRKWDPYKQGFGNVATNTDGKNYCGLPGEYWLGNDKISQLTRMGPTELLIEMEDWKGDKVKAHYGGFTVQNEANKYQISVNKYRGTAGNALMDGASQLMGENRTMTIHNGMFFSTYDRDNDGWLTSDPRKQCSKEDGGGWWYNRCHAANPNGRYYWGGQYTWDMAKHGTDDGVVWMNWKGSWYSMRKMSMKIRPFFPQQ
Sequence of UniProt P02671 (P02679 other isoform, or with tags, fused parts or gaps limits assumed, chain 3 of 3, further chain): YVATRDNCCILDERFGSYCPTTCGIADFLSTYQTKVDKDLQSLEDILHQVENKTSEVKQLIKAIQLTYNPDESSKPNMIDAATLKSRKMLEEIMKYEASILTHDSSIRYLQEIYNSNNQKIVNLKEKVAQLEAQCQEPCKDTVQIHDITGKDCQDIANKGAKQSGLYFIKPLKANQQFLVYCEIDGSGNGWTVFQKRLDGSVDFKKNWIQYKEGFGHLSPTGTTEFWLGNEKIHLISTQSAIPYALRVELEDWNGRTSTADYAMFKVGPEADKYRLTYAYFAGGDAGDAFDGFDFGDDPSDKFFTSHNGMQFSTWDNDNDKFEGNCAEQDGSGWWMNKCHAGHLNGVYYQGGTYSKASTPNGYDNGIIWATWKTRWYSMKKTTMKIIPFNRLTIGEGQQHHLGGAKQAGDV
Sequence of UniProt P02769 (P02769 25-607 limits assumed): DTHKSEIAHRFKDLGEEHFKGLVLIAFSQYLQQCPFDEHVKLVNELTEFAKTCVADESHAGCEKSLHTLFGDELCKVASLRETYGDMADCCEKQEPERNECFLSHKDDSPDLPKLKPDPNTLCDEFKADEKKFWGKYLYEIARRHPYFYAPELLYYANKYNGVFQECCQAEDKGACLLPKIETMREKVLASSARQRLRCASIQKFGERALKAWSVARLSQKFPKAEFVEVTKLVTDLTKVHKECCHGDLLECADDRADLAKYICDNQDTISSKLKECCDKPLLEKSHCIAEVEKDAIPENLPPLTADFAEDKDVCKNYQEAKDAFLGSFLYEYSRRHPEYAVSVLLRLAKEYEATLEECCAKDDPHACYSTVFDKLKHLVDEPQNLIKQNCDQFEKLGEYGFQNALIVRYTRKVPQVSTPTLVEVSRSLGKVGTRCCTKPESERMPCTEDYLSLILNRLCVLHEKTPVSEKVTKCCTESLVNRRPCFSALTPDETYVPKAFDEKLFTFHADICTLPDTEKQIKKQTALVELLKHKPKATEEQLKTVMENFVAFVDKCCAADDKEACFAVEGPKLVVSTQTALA

For the substance “Bovine serum albumin (fraction V, ria grade) (from UniProt P02769 25-607)”, in [1], the eluted phage titre at 0 µg/ml soluble ligand was 76000 cfu/ml, the eluted phage titre at 0.1 µg/ml soluble ligand came to 70000 cfu/ml, the eluted phage titre at 1 µg/ml soluble ligand amounted to 93000 cfu/ml and the eluted phage titre at 10 µg/ml soluble ligand came to 63000 cfu/ml. For the same substance, in assay [1], the eluted phage titre at 100 µg/ml soluble ligand is 64000 cfu/ml and the eluted phage titre at 1000 µg/ml soluble ligand was 69000 cfu/ml.
In assay [1], “Human fibrinogen (from UniProt P02671 20-644; P02675 31-491; P02679 27-437)” gave an eluted phage titre at 0 µg/ml soluble ligand of 76000 cfu/ml, an eluted phage titre at 0.1 µg/ml soluble ligand of 44000 cfu/ml, an eluted phage titre at 1 µg/ml soluble ligand of 36000 cfu/ml and an eluted phage titre at 10 µg/ml soluble ligand of 15000 cfu/ml. Also, in assay [1], the eluted phage titre at 100 µg/ml soluble ligand amounted to 3800 cfu/ml and the eluted phage titre at 1000 µg/ml soluble ligand was 300 cfu/ml.
As for “fibrinogen binding protein encoded from pSE100 (581 aa part of protein FIG of Staphylococcus epidermidis strain HB) (from UniProt O70022 75-656)”, the phage titre in the last wash with Transferrin [2] was 200 cfu/ml; with Pepsin [3], 180 cfu/ml; with Human fibrinogen (human) [4] it was 11000 cfu/ml; with Fibronectin [5], 600 cfu/ml; with Vitronectin [6] it was less than 100 cfu/ml; with Collagen type I [7] it was 600 cfu/ml. Further, the phage titre in the last wash in the assay with human IgG [8] is 400 cfu/ml; in the assay with α2macroglobulin [9] it was 200 cfu/ml; in the assay with Elastin [10], 800 cfu/ml; with IgA [11], 600 cfu/ml; in the assay with Lactoferrin [12], 600 cfu/ml; in assay [13] it was less than 100 cfu/ml. Also, the phage titre in the last wash in assay [14] is 800 cfu/ml. Besides, the phage titre in Eluate pH 1.8 with Transferrin [15] is 2400 cfu/ml; with Pepsin [16] it was 37000 cfu/ml; with Human fibrinogen (human) [17] it was 1.4e+07 cfu/ml; with Fibronectin [18], 24000 cfu/ml; in the assay with Vitronectin [19], 2200 cfu/ml; with Collagen type I [20], 1200 cfu/ml. Further, the phage titre in Eluate pH 1.8 was 4400 cfu/ml in the assay with human IgG [21]; 2000 cfu/ml with α2macroglobulin [22]; 5200 cfu/ml with Elastin [23]; 68000 cfu/ml in the assay with IgA [24]; 8200 cfu/ml in the assay with Lactoferrin [25]; 800 cfu/ml in assay [26]. This substance also had a phage titre in Eluate pH 1.8 in assay [27] of 2200 cfu/ml.
For human IgG (antibody), in [1], the eluted phage titre at 0 µg/ml soluble ligand worked out at 76000 cfu/ml, the eluted phage titre at 0.1 µg/ml soluble ligand was found to be 62000 cfu/ml, the eluted phage titre at 1 µg/ml soluble ligand stood at 90000 cfu/ml and the eluted phage titre at 10 µg/ml soluble ligand is 78000 cfu/ml. In assay [1], this substance yielded an eluted phage titre at 100 µg/ml soluble ligand of 73000 cfu/ml and an eluted phage titre at 1000 µg/ml soluble ligand of 76000 cfu/ml.
